Data on six molecules can be found in patent US12291727B2, “Method for producing stem cell-derived lacrimal gland tissue” (Osaka University, priority 2018, dated 2025).

The assay deals with CD200−, SSEA4+, and CD104+ ocular surface stem cells. Kind of assay: Three-dimensional culture for induction of lacrimal gland organoids from iPS cell-derived ocular surface stem cells. Format: cell-based, Human. The conditions noted are these: for promoting lacrimal gland differentiation: 3D culture in Matrigel, 20 ng/mL KGF, 100 ng/mL FGF10, 100 ng/mL BMP7 or 10 μM Y-27632, each plus 10 ng/mL EGF, FIG. 5A. How it is done: The obtained ocular surface stem cells were seeded on PrimeSurface (registered trademark) 96U plates (Sumitomo Bakelite Co., Ltd.) at 50,000 cells/spheroid in DMEM/F-12 with B27 supplement containing 10 μM Y-27632 and 20 ng/mL KGF and cultured for 1 day to form spheroids (diameter: about 560 μm). The spheroids were embedded in Matrigel GFR (Corning) and cultured in DMEM/F-12 with B27 supplement containing 10 μM Y-27632, 10 ng/mL EGF, and 100 ng/mL TGF-β3 for 2 weeks.
Three-dimensional culture was performed as described in Example 2 in the presence of 10 ng/mL EGF, 10 ng/mL EGF plus 10 μM Y-27632, or 10 ng/mL EGF plus another growth factor reportedly involved in lacrimal gland differentiation, namely, 20 ng/mL KGF, 100 ng/mL FGF10, or 100 ng/mL BMP7.
Similarly, three-dimensional culture was performed in DMEM/F-12 with B27 supplement, 10 ng/mL EGF, and 10 μM Y-27632 containing 100 ng/mL TGF-β1, β2, or β3.
Three-dimensional culture was performed as described in Example 2 in a medium with 10 ng/mL EGF and 10 μM Y-27632 containing 4, 20, or 100 ng/mL TGF-β3.
RNA was collected from each sample using QIAzol Lysis Reagent and subjected to gene expression analysis as described in Example 3.

As for `C[C@@H](N)[C@H]1CC[C@H](C(=O)Nc2ccncc2)CC1` [Y-27632, N-(4-pyridinyl)-4β-[(R)-1-aminoethyl]cyclohexane-1α-carboamide, reference compound], the “promoting lacrimal gland differentiation” value was “remarkably promoted lacrimal gland differentiation”.

As for TGF-β, the “maturation of the lacrimal gland structure” value (100 ng/mL TGF-β1, β2 or β3 in medium with 10 ng/mL EGF and 10 μM Y-27632, FIG. 5B) is “helped further maturation of the lacrimal gland structure”.

B1: FGF10: growth factor reportedly involved in lacrimal gland differentiation (protein, UniProt O15520 38-208, looked up)
Fibroblast growth factor 10: QALGQDMVSPEATNSSSSSFSSPSSAGRHVRSYNHLQGDVRWRKLFSFTKYFLKIEKNGKVSGTKKENCPYSILEITSVEIGVVAVKAINSNYYLAMNKKGKLYGSKEFNNDCKLKERIEENGYNTYASFNWQHNGRQMYVALNGKGAPRRGQKTRRKNTSAHFLPMVVHS
Turning to B1, the “promoting lacrimal gland differentiation” value is recorded as “less effective”.

B2: BMP7: growth factor reportedly involved in lacrimal gland differentiation (protein, UniProt P18075 293-431, looked up)
Bone morphogenetic protein 7: STGSKQRSQNRSKTPKNQEALRMANVAENSSSDQRQACKKHELYVSFRDLGWQDWIIAPEGYAAYYCEGECAFPLNSYMNATNHAIVQTLVHFINPETVPKPCCAPTQLNAISVLYFDDSSNVILKKYRNMVVRACGCH
With B2, the “promoting lacrimal gland differentiation” value is listed as “less effective”.

B3: TGF-β3: TGF-β subtype added to the medium to promote cell maturation (protein, UniProt P10600 301-412, looked up)
Transforming growth factor …: ALDTNYCFRNLEENCCVRPLYIDFRQDLGWKWVHEPKGYYANFCSGPCPYLRSADTTHSTVLGLYNTLNPEASASPCCVPQDLEPLTILYYVGRTPKVEQLSNMVVKSCKCS
modifications: Transforming growth factor beta-3
notes: TGF-β subtype added to the medium to promote cell maturation
B3: the “maturation (morphology and gene expression)” value (4 ng/mL TGF-β3 in medium with 10 ng/mL EGF and 10 μM Y-27632, FIGS. 6A, 6B) is “maturation was promoted to some extent”. In addition, where the note is “4, 20 or 100 ng/mL TGF-β3 in medium with 10 ng/mL EGF and 10 μM Y-27632”, the “extent of maturation, concentration dependence” value is “increased in a TGF-β3 concentration dependent manner”.

B4: KGF: keratinocyte growth factor, growth factor reportedly involved in lacrimal gland differentiation (protein, UniProt P21781 32-194, looked up)
Fibroblast growth factor 7: CNDMTPEQMATNVNCSSPERHTRSYDYMEGGDIRVRRLFCRTQWYLRIDKRGKVKGTQEMKNNYNIMEIRTVAVGIVAIKGVESEFYLAMNKEGKLYAKKECNEDCNFKELILENHYNTYASAKWTHNGGEMFVALNQKGIPVRGKKTKKEQKTAHFLPMAIT
Consider B4, for which the “promoting lacrimal gland differentiation” value is recorded as “less effective”.
